Measurements published in patent publication US20170342151A1 (Memorial Sloan Kettering, published 2017).
Like-named read-outs stand apart in the source and are kept apart here.

B1: ch763IgG1, chimeric 763 HC and LC in IgG1 format (antibody, V domains shown)
VH: QIQLVQSGPELKKPGETVKISCKASGYTFTDYSMHWVKKTPGKGLKWLGWINTATGEPTYADDFKGRFAISLETSARTVYLQINNLRNEDTATYFCFSYYDYWGQGTTLTVSA
VL: DIKLSQSPSILSVTPGETVSLSCRASQTIYKNLHWYQQKSHRSPRLLIKYGSDSISGIPSRFTGSGSGTDYTLNINSVKPEDEGIYYCLQGYSTPWTFGGGTKLEIKR
B2: murine anti-CSPG4 antibody 763.74 (antibody, V domains shown)
VH: QIQLVQSGPELKKPGETVKISCKASGYTFTDYSMHWVKKTPGKGLKWLGWINTATGEPTYADDFKGRFAISLETSARTVYLQINNLRNEDTATYFCFSYYDYWGQGTTLTVS
VL: DIKLSQSPSILSVTPGETVSLSCRASQTIYKNLHWYQQKSHRSPRLLIKYGSDSISGIPSRFTGSGSGTDYTLNINSVKPEDEGIYYCLQGYSTPWTFGGGTKLEIK
notes: also called m763
B3: hu763IgG1n H2-L2, humanized 763 H2 and L2 in IgG1 format with variant glycosylation (antibody)
heavy: not shown
light: EIVLTQSPATLSVSPGETVTLSCRASQTIYKNLHWYQQKSGLSPRLLIKYGSDSISGIPARFSGSGSGTDYTLTINSVEPEDEGIYYCLQGYSTPWTFGQGTKLEIKRTVAAPSVFIFPPSDEQLKSGTASVVCLLNNFYPREAKVQWKVDNALQSGNSQESVTEQDSKDSTYSLSSTLTLSKADYEKHKVYACEVTHQGLSSPVTKSFNRGEC
modifications: variant Fc glycosylation from expression in GnT1-deficient CHO cells (78.3% mannose, 20.5% N-acetyl glucosamine, 1.2% glucose; no fucose)
notes: also called hu763-H2L2-IgG1n
B4: hu763IgG4 H2-L2, humanized 763 H2 and L2 in IgG4 format (antibody)
heavy: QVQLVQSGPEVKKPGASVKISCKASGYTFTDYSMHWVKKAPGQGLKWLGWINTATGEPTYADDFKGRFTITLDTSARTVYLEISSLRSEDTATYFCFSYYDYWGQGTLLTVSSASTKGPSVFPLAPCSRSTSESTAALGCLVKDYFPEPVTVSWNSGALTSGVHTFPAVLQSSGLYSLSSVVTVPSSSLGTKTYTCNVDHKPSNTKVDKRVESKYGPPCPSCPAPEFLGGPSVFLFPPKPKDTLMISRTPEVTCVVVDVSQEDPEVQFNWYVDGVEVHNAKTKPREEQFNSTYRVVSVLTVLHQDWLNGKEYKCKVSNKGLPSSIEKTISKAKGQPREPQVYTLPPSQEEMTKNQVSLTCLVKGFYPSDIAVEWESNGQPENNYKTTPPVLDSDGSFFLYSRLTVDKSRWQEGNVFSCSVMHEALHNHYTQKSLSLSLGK
light: B3 light
B5: hu763-HC-OKT3, humanized 763 IgG1 with huOKT3 scFv on the C-terminus of the heavy chain (bispecific antibody)
heavy: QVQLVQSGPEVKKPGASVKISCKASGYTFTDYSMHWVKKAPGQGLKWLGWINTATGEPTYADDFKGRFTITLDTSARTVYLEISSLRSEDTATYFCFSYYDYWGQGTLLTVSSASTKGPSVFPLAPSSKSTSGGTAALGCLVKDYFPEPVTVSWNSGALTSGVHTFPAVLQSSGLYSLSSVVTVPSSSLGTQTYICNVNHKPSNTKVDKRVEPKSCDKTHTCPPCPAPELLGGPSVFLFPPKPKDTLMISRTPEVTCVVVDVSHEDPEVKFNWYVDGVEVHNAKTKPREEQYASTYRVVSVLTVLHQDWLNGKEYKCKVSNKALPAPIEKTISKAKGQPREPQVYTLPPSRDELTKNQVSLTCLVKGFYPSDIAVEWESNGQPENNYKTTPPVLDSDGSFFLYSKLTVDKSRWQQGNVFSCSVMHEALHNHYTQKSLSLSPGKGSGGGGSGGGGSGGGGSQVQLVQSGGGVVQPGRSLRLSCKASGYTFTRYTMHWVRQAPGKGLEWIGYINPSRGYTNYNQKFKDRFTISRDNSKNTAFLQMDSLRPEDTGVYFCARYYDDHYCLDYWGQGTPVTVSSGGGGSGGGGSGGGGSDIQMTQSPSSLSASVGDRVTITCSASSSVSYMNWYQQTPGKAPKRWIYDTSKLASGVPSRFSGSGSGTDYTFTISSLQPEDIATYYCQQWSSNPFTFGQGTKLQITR
light: B3 light
notes: IgG-scFv format, aglycosylated Fc (N297A); also called hu763-HC-huOKT3; hu763-BsAb
B6: hu763IgG1 H2-L2, humanized 763 H2 and L2 in IgG1 format (antibody)
heavy: not shown
light: B3 light
notes: also called parental hu763

Assays:
[1] = biological target: T1, anti-763 idiotype antibody MK2-23; assay: SPR, Biacore T-100, MK2-23 on CM5 chip, monovalent analyte model
T1 construct: Immobilized on the CM5 chip; also called anti-idiotype MK2-23
Description: (§1) CMS sensor chip (Research grade) and related reagents were purchased from Biacore USA (Piscataway, N.J.). […] The system first run 20× cycles of buffer only to get stable baseline levels. […] Samples (60 μL) were injected over the sensor surface at a flow rate of 30 μL/min over 2 min. Association time was set for one minute; dissociation time was set for from five minutes to 30 minutes. Following completion of the association phase, dissociation was monitored in HBS-E buffer containing 250 mM NaCl at the same flow rate. At the end of each cycle, the surface was regenerated using 50 μL 20 mM NaOH at a flow rate of 50 μL/min over one minute and 100 μL 4M MgCl₂ at a flow rate of 50 μL/min over two minutes.

[2] = biological target: T2, D2.8.11, a peptide epitope for murine 763 (human); assay: SPR, Biacore T-100, D2.8.11 on CM5 chip, bivalent analyte model
T2 construct: also called antigen D2.8.11; peptide D2.8.11
T2 chain: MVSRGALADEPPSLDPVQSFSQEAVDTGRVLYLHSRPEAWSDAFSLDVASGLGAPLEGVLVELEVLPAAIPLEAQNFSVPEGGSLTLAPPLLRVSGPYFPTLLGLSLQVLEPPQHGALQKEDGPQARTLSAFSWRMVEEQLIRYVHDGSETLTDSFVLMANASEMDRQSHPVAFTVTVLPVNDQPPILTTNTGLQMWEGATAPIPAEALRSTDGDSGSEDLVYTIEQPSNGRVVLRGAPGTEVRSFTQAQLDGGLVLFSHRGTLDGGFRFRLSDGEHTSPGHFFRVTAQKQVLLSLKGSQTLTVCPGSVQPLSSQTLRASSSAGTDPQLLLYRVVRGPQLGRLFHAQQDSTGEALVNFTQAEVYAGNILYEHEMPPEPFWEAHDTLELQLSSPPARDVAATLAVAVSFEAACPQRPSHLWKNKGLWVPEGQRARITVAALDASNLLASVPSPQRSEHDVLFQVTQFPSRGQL
Description: as §1

[3] = biological target: T2, D2.8.11, a peptide epitope for murine …; assay: SPR, Biacore T-100
[4] = biological target: T1, anti-763 idiotype antibody MK2-23; assay: SPR, Biacore T-100, MK2-23 on CM5 chip, monovalent analyte model; remark: listed apart in the source
Description: as §1

[5] = biological target: T3, human chondroitin sulfate proteoglycan 4 (CSPG4) on cells (human, UniProt Q6UVK1 30-2322); assay: ELISA on M14 cell-coated plates, HRP goat anti-human secondary
T3 construct: Target on CSPG4-positive M14 cells (FACS, cell ELISA) and in frozen human tissue sections (IHC); also called HMW-MAA; MCSP
Description: Hu763-IgG1 was also subjected to five cycles of a freeze and thaw process. […] Antigen binding was expressed as % of MFI of maximum binding at 5 μg. E, ELISA analysis of hu763-IgG1 and hu763-IgG1n on M14 cells coated plates. Binding was detected with HRP conjugated goat anti-human secondary antibody. Hu763-IgG1n was subjected to five cycles of a freeze and thaw process.
An ELISA method using coated M14 as antigen was also used to assay hu763-IgG1 and hu763-IgG1n binding (FIG. 3E). […] Hu763-IgG1n still bound to M14 cells well after subjected to five cycles of freezing and thawing process.

[6] = biological target: CD3 antigen (surface plasmon resonance); assay: SPR, Biacore, two state reaction model

T3 sequence (Q6UVK1 30-2322 limits assumed): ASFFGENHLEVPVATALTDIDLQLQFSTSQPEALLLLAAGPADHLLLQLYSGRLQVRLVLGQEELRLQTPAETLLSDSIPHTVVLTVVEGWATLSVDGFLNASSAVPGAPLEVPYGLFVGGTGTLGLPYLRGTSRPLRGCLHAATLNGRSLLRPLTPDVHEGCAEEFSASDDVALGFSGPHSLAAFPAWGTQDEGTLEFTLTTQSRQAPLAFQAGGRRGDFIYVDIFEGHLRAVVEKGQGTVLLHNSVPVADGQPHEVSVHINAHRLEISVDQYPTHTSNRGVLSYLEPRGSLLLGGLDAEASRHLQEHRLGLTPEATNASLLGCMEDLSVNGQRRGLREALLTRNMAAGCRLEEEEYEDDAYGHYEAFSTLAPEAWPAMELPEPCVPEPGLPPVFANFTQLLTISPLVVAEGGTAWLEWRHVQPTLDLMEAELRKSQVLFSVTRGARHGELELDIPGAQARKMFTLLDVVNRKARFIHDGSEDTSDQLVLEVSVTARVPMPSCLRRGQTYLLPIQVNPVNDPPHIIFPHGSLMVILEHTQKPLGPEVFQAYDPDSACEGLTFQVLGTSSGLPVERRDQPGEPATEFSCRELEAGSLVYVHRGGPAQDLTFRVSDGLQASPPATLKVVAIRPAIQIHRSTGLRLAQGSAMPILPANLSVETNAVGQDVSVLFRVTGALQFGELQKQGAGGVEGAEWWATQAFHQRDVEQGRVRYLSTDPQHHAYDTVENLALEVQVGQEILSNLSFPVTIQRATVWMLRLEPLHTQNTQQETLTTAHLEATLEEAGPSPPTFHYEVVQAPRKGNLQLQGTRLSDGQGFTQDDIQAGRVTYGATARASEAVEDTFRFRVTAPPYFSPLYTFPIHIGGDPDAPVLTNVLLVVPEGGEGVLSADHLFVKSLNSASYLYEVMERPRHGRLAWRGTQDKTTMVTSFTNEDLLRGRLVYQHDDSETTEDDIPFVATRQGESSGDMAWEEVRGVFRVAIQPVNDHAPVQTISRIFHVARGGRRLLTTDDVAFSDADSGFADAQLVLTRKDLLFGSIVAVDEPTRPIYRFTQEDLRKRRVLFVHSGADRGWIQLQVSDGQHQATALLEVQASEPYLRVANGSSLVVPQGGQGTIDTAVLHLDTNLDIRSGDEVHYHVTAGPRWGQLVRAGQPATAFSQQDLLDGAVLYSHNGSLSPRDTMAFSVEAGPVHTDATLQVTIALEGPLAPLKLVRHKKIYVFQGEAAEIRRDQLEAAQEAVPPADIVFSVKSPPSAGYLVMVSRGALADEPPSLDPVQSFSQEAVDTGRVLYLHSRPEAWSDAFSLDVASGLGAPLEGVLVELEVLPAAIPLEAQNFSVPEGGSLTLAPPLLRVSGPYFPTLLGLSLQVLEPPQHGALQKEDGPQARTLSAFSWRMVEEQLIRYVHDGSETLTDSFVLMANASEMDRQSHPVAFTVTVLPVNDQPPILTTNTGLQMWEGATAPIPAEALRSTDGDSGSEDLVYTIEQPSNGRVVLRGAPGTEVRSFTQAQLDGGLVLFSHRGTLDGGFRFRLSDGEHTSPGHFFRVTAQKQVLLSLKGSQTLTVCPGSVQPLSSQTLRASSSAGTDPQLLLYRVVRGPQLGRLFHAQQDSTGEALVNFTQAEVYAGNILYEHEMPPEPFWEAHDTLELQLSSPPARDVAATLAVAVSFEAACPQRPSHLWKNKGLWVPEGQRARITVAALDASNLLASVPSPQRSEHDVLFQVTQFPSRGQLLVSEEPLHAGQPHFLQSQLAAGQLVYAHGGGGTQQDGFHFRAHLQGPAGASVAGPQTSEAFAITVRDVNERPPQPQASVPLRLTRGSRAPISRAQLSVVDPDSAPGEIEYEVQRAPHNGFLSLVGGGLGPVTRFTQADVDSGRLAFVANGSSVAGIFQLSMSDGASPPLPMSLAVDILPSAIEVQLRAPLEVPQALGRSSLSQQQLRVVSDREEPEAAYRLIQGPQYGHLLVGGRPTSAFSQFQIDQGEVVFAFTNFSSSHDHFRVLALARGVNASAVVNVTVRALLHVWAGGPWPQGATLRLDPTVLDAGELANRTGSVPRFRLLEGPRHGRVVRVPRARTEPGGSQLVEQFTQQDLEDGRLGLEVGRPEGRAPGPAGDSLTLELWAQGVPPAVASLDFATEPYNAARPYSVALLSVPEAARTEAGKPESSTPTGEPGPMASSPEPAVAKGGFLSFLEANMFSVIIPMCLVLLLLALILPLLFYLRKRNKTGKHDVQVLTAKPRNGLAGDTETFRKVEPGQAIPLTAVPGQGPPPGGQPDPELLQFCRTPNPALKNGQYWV

Binder	Kd [1]	koff [1]	kon [1]	Kd [2]	koff [2]	kon [2]	Kd [3]	kon [3]	Kd [4]	koff [4]	kon [4]	binding result [5]	Kd [6]	koff [6]	kon [6]
B1	1.89 nM	0.000339 s⁻¹	179000 M⁻¹ s⁻¹	84 nM	0.00295 s⁻¹	35100 M⁻¹ s⁻¹	–	–	–	–	–	–	–	–	–
B2	2.09 nM	0.000163 s⁻¹	78200 M⁻¹ s⁻¹	1.34 nM	3.89e-05 s⁻¹	29000 M⁻¹ s⁻¹	1.3 nM	29600 M⁻¹ s⁻¹	0.582 nM	8.5e-05 s⁻¹	146000 M⁻¹ s⁻¹	–	–	–	–
B3	–	–	–	1.15 nM	3.28e-05 s⁻¹	28500 M⁻¹ s⁻¹	–	–	0.449 nM	7.54e-05 s⁻¹	168000 M⁻¹ s⁻¹	binds	–	–	–
B4	–	–	–	1.22 nM	3.5e-05 s⁻¹	28700 M⁻¹ s⁻¹	–	–	0.48 nM	8.01e-05 s⁻¹	167000 M⁻¹ s⁻¹	–	–	–	–
B5	–	–	–	–	–	–	–	–	–	–	–	–	231 nM	0.0696 s⁻¹	302000 M⁻¹ s⁻¹
B6	1.75 nM	0.000181 s⁻¹	103000 M⁻¹ s⁻¹	1.29 nM	3.81e-05 s⁻¹	29600 M⁻¹ s⁻¹	–	–	–	–	–	–	–	–	–
